Laboratory results: paper PMC4659945, “X-ray structure and activities of an essential Mononegavirales L-protein domain” (Nature Communications, 2015)

Target: the molecule itself
Assay: crystal structure; CR-VI+ crystals, space group P2_(1)2_(1)2_(1), two molecules in the asymmetric unit; vapour diffusion at 20.5 °C, PGA-HT screen C11 (pH 6.5) with 0.1 M guanidine hydrochloride

B1: CR-VI+ domain of human metapneumovirus (hMPV) L protein (domain or fragment)
chain: NALLTPIPSPMVNLTQVIDPTEQLAYFPKITFERLKNYDTSSNYAKGKLTRNYMILLPWQHVNRYNFVFSSTGCKVSLKTCIGKLMKDLNPKVLYFIGEGAGNWMARTACEYPDIKFVYRSLKDDLDHHYPLEYQRVIGELSRIIDSGEGLSMETTDATQKTHWDLIHRVSKDALLITLCDAEFKDRDDFFKMVILWRKHVLSCRICTTYGTDLYLFAKYHAKDCNVKLPFFVRSVATFIMQGSKLSGSECYILLTLGHHNNLPCHGEIQNSKMKIAVCNDFYAAKKLDNKSIEANCKSLLSGLRIPINKKELNRQRRLLTLQSNHSSVATVGGSKVIESKWLTNKANTIIDWLEHILNSPKGELNYDFFEALENTYPNMIKLIDNLGNAEIKKLIKVTGYMLVSKK
modifications: disulphide between C1877 of the two copies
notes: L protein (large RNA polymerase) of human metapneumovirus isolate 00-1, GenBank AF371337.2, residues 1599-2005 (CR-VI ~1616-1883 and +domain 1884-2005); synthetic gene, codon optimised for Sf cells; The text calls it a 406-residue fragment, but 1599-2005 counts 407 residues; A selenomethionine form was used for phasing; The construct was also expressed in HEK293T and BL21 Star; crystals came from …
- stoichiometry N: 2
